According to paper PMC5153404, “Analysis of the Interaction between Globular Head Modules of Human C1q and Its Candidate Receptor gC1qR” (Frontiers in Immunology, 2016):

Molecular target: T1, Human C1q (human, UniProt P02745 23-245; P02746 28-253; P02747 29-245)
T1 construct: C1q A chain, human, from plasma; C1q B chain, human, from plasma; C1q C chain, human, from plasma; 18 polypeptides (6A, 6B, 6C), 460 kDa, as the introduction says; also called full-length C1q; source: purified from human plasma (IgG-Sepharose, HiTrap Protein G); copies: 6 + 6 + 6
T1 sequence (P02745 23-245, chain 1 of 3): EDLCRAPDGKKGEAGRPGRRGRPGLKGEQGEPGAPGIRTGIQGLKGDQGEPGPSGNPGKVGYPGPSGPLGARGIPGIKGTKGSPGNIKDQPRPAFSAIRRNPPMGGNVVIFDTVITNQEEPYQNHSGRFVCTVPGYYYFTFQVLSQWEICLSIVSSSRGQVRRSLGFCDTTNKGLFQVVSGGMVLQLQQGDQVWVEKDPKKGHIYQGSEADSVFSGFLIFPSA
T1 sequence (P02746 28-253, chain 2 of 3): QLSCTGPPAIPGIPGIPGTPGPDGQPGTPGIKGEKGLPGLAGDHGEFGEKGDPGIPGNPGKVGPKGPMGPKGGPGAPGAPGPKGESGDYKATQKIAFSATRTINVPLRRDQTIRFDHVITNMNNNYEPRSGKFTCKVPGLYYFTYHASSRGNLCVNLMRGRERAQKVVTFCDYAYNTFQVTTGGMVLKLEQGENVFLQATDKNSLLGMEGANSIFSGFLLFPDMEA
T1 sequence (P02747 29-245, chain 3 of 3): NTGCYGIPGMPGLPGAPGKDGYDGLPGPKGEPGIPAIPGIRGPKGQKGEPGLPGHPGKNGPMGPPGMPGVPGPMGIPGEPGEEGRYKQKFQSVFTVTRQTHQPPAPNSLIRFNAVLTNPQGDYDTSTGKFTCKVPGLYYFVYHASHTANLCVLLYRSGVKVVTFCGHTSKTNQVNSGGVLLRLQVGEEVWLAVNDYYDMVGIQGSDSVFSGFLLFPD
Assay: ELISA; human C1q coated on wells (5, 2.5, 1.25, 0.625 μg/well); 2.5 μg gC1qR in 50 mM Tris-HCl pH 8.0, 100 mM NaCl, 5 mM CaCl2; 1 h at 37°C, then 1 h at 4°C; detected with anti-gC1qR polyclonal antibody and Protein A-HRP
Conditions: both partners purified

- binding result: binds
B1: Recombinant mature human gC1qR (residues 74-282) (receptor, UniProt Q07021 74-282, looked up)
chain: LHTDGDKAFVDFLSDEIKEERKIQKHKTLPKMSGGWELELNGTEAKLVRKVAGEKITVTFNINNSIPPTFDGEEEPSQGQKVEEQEPELTSTPNFVVEVIKNDDGKKALVLDCHYPEDEVGQEDEAESDIFSIREVSFQSTGESEWKDTNYTLNTDSLDWALYDHLMDFLADRGVDNTFADELVELSTALEHQEYITFLEDLKSFVKSQ
